Substrate: NC(N)=O
Assay: Km determination of urease by the GlDH method
Assay type: biochemical, Bacillus sp. TB-90
Details: other: GlDH method, 40 mM Tris-HCl buffer pH 8.0, 37° C.
Protocol: A reaction solution consisting of 100 millimoles (mM) of urea, 40 mM of Tris-HCl buffer (pH 8.0), 0.86 mM of α-ketoglutaric acid, 0.31 mM of NADPH and 17.2 unit per milliliter (U/ml) of glutamate dehydrogenase (GlDH) was maintained at 37° C. Then an enzyme solution to be measured was added to the reaction solution to initiate the reaction, and a rate of decrease in absorbance at 37° C., E340 nm, was measured. All the concentrations are indicated in their final concentrations. A rate of decrease in NADPH was calculated from the rate of decrease in absorbance E340 nm, and the amount of ammonia formed by the action of urease was calculated from the rate of decrease in absorbance E340 nm.
In connection with enzyme activity, an amount of the enzyme forming 2 micromoles (μmole) of ammonia per minute was defined as one unit (1 U). This definition was calculated based on experiments carried out under the conditions described in the aforementioned GlDH method.
The Km value as determined under the conditions of the aforementioned GlDH method was about 0.3 mM for urea.

B1: urease (EC 3.5.1.5) from Bacillus sp. Strain TB-90 (FERM BP-795) (Bacillus sp. TB-90) (protein)
chain: MSFSMSRKQYADMFGPTVGDAIRLADSELFIEIEKDYTTYGDEVKFGGGKVIRDGMGQHPLATSDECVDLVLTNAIIVDYTGIYKADIGIKDGMIASIGKAGNPLLMDGVDMVIGAATEVIAAEGMIVTAGGIDAHIHFICPQQIETALASGVTTMIGGGTGPATGTNATTCTPGPWNIHRMLQAAEEFPINLGFLGKGNCSDEAPLKEQIEAGAVGLKLHEDWGSTAAAIDTCLKVADRYDVQVAIHTDTLNEGGFVEDTLKAIDGRVIHTYHTEGAGGGHAPDIIKAAGFPNILPSSTNPTRPYTINTLEEHLDMLMVCHHLDANIPEDIAFADSRIRKETIAAEDVLHDLGVFSMISSDSQAMGRVGEVIIRTWQTADKMKKQRGKLQEDNGVGDNFRVKRYIAKYTINPAIAHGIADYVGSVEVGKLADLVVWNPAFFGVKPELVLKGGMIAYSTMGDPNASIPTPQPVLYRPMFAAKGDAKYQTSITFVSKAAYEKGIHEQLGLKKKVKPVHGIRKLTKKDLILNDKTPKIDVDPQTYEVKVDGQLVTCEPAEIVPMAQRYFLF
B1 showed a Km of 0.3 mM.

Reference: patent US4753882A, “Urease and process for preparation thereof” (Sapporo Breweries Limited, priority 1986, dated 1988)
